Our source for the IC50 (read off the curve), inhibition of HGF-induced SRE-luciferase signal values is patent US20180134794A1.

Like-named read-outs stand apart in the source and are kept apart here.

Test [1] deals with human MET (c-Met, HGFR) endogenously expressed on cell lines (human) (UniProt P08581).
Test [2] has the same target. The source holds these as a separate data set.

Chain of human MET (c-Met, HGFR) endogenously expressed on cell lines (human) (P08581 25-1390): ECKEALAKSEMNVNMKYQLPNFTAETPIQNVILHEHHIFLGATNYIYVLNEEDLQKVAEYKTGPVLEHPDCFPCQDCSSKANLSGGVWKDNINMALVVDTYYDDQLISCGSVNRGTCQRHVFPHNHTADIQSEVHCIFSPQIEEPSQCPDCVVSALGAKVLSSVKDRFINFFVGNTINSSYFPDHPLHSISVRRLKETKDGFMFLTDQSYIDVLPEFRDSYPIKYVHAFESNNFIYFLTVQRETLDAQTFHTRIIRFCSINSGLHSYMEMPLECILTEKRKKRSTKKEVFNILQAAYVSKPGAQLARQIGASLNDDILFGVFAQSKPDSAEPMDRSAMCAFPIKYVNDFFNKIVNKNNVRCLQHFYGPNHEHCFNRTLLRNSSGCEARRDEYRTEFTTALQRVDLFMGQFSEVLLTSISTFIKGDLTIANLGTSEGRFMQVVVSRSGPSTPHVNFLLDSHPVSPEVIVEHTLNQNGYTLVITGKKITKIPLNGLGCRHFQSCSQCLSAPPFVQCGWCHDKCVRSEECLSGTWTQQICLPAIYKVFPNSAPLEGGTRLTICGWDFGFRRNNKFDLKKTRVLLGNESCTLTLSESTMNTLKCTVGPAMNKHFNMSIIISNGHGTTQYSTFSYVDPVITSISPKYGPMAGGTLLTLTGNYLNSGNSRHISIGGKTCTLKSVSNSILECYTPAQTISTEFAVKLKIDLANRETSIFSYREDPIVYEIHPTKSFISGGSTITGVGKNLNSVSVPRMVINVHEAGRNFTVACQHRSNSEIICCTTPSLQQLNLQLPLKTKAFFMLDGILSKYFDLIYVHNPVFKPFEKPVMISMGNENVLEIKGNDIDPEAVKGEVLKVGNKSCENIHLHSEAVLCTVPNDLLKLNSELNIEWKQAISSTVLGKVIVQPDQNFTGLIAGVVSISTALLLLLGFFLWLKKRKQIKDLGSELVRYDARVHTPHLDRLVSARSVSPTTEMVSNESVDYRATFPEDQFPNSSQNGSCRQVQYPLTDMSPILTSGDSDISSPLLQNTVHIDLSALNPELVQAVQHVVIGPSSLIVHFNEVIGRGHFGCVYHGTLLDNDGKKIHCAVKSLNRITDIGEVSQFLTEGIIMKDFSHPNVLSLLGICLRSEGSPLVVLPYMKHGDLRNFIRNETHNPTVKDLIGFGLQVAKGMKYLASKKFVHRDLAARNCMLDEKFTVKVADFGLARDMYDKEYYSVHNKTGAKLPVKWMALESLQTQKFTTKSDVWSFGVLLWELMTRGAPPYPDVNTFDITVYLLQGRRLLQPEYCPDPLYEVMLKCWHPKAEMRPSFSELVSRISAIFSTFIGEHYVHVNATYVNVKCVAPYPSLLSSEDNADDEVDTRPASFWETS

As to “monovalent anti-MET antibody (heavy and light chain variable sequences of MetMab)”, the results for the IC50 (read off the curve), inhibition of HGF-induced SRE-luciferase signal in test [1] and in test [2] were 0.4 nM and 0.06 nM, respectively.
